Here are results for two molecules from article PMC4050180 (FEBS Open Bio, 2014).

The chains are these.
T1: 6xHis-TF-DGKα-C1 domains (porcine, UniProt P20192 196-362)
T1 sequence (looked up): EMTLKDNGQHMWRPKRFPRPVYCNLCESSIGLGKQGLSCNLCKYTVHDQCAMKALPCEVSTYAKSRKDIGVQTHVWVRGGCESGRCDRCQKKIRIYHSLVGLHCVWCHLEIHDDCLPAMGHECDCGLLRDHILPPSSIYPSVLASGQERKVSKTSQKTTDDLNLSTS

B1: GST-DGKα-EF-hand motifs (domain or fragment)
chain: not shown
B2: EGFP-DGKα-C-terminal region (domain or fragment)
chain: not shown

One assay deals with T1, 6xHis-TF-DGKα-C1 domains. As to the kind of experiment: pull-down.
The assay “GST-DGKα-EF-hand motifs” has as its target B1. As to the kind of experiment: pull-down.

GST-DGKα-EF-hand motifs, sequence (P20192 103-200): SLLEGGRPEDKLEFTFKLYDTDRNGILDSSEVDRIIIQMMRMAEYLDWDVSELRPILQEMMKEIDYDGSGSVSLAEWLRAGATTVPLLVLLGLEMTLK

As to B1, the binding result with 6xHis-TF-DGKα-C1 domains is reported as “binds”. On to B2, for which the “band intensity relative to the RVH domain” value with GST-DGKα-EF-hand motifs was roughly 3 fold.
